Data: patent publication US20210032351A1 (XDCEXPLORER SHANGHAI, published 2021)
Substitutions are numbered along the chain they refer to.

B1: Humanized antibody h75G7C6-3 (antibody, human IgG1, V domains shown)
VH: EVQLVQSGAEVKKPGASVKVSCKASGYTFTDYNMDWVKQAPGQGLEWIGDINPNNADTIYNQKFKGRVTLTVDKSTSTVYMELSSLRSEDTAVYYCARGDYDGYYPVYYAMDYWGQGTTVTVSS
VL: ENVLTQSPATLSLSPGERATLSCRASSSVSSSYLHWYQQKPGQSPRLLIFSTSNLAAGIPARFSGSGSGTDYTLTISSLEPEDFAVYYCQQYSGYPLTFGGGTKVEIK
B2: Humanized antibody h75G7C6-8 (antibody, human IgG1, V domains shown)
VH: B1 VH with E1Q, K38R, I48M, L70M, V72R, K74T
VL: B1 VL with I59V
B3: Humanized antibody h75G7C6-4 (antibody, human IgG1, V domains shown)
VH: B1 VH
VL: B1 VL with I59V
B4: Humanized antibody h75G7C6-6 (antibody, human IgG1, V domains shown)
VH: B1 VH with E1Q, K38R, I48M, L70M, V72R, K74T
VL: B1 VL with S44A
B5: Humanized antibody h75G7C6-7 (antibody, human IgG1, V domains shown)
VH: B1 VH with E1Q, K38R, I48M, L70M, V72R, K74T
VL: B1 VL
B6: Humanized antibody h63A10A7-17 (antibody, human IgG1, V domains shown)
VH: QVQLVQSGAEVKKPGASVKVSCKASGYTFISFTMHWVKQRPGQGLEWIGYINPNSGYTKYNQKFKDKATLTRDTSTSTVYMELSSLRSEDTAVYYCTRGGGRGFAYWGQGTLVTVSS
VL: DILMTQSPSSLSASVGDRVTITCHASQDINSNIGWLQQKPGKSFKALIYHGTNLEDGVPSRFSGSGSGADYTLTISSLQPEDFATYYCVQYAQFPFTFGQGTKLEIK
notes: also called VH-g4/VL-g4
B7: Humanized antibody h63A10A7-22 (antibody, human IgG1, V domains shown)
VH: B6 VH
VL: B6 VL with L3Q
notes: also called VH-g4/VL-g3
B8: Humanized antibody h63A10A7-26 (antibody, human IgG1, V domains shown)
VH: B6 VH
VL: B6 VL with L36Y, Y71F
notes: also called VH-g4/VL-g8
B9: Humanized antibody h63A10A7-37 (antibody, human IgG1, V domains shown)
VH: B6 VH with I48M, L70M
VL: B6 VL with L3Q
notes: also called VH-g6/VL-g3
B10: Humanized antibody h63A10A7-18 (antibody, human IgG1, V domains shown)
VH: B6 VH with R72A, T74Q, V79A
VL: B6 VL
notes: also called VH-g5/VL-g4
B11: Humanized antibody h63A10A7-38 (antibody, human IgG1, V domains shown)
VH: B6 VH with K38R, R40A
VL: B6 VL with L3Q
notes: also called VH-g7/VL-g3
B12: Humanized antibody h63A10A7-20 (antibody, human IgG1, V domains shown)
VH: B6 VH with K38R, R40A
VL: B6 VL
notes: also called VH-g7/VL-g4
B13: Humanized antibody h63A10A7-25 (antibody, human IgG1, V domains shown)
VH: B6 VH
VL: B6 VL with L36Y
notes: also called VH-g4/VL-g7
B14: Humanized antibody h63A10A7-39 (antibody, human IgG1, V domains shown)
VH: B6 VH with K67R, A68V
VL: B6 VL with L3Q
notes: also called VH-g8/VL-g3
B15: Humanized antibody h63A10A7-23 (antibody, human IgG1, V domains shown)
VH: B6 VH
VL: B6 VL with S43A, F44P
notes: also called VH-g4/VL-g5
B16: Humanized antibody h63A10A7-21 (antibody, human IgG1, V domains shown)
VH: B6 VH with K67R, A68V
VL: B6 VL
notes: also called VH-g8/VL-g4
B17: Humanized antibody h63A10A7-19 (antibody, human IgG1, V domains shown)
VH: B6 VH with I48M, L70M
VL: B6 VL
notes: also called VH-g6/VL-g4
B18: Humanized antibody h63A10A7-24 (antibody, human IgG1, V domains shown)
VH: B6 VH
VL: B6 VL with A69T
notes: also called VH-g4/VL-g6
B19: Humanized antibody h75G7C6-10 (antibody, human IgG1, V domains shown)
VH: B1 VH with E1Q, K38R, K74T
VL: B1 VL with S44A
notes: also called VH-g1/VL-g1
B20: Humanized antibody h75G7C6-12 (antibody, human IgG1, V domains shown)
VH: B1 VH with E1Q, K38R, K74T
VL: B1 VL with I59V
notes: also called VH-g1/VL-g3
B21: Humanized antibody h75G7C6-11 (antibody, human IgG1, V domains shown)
VH: B1 VH with E1Q, K38R, K74T
VL: B1 VL
notes: also called VH-g1/VL-g2

The binders below were run against human EGFRvIII-hFc protein (human) (UniProt P00533) (assay: ELISA, EGFRvIII-hFc coated).

| EC50 | Maximum OD450 value | Binder |
| --- | --- | --- |
| 0.51 nM | 3.44 OD450 | B1 |
| 2 nM | 2.72 OD450 | B2 |
| 0.45 nM | 3.37 OD450 | B3 |
| 0.68 nM | 3.2 OD450 | B4 |
| 1.1 nM | 2.97 OD450 | B5 |

These binders were tested against human EGFRvIII protein on the cell surface (human) (UniProt P00533) (assay: FACS on U87MG-EGFRvIII cells).

| EC50 | Maximum mean fluorescence intensity | Binder |
| --- | --- | --- |
| 5.6 nM | 18600 MFI | B1 |
| 11.6 nM | 17600 MFI | B2 |
| 5.57 nM | 18700 MFI | B3 |
| 5.96 nM | 17100 MFI | B4 |
| 5.74 nM | 17200 MFI | B5 |

Each binder was assayed against T1, human EGFRvIII-hFc protein (human, UniProt P00533 25-645) (assay: ELISA, EGFRvIII-hFc coated).
T1 construct: extracellular domain; also called immunogen A; hFc-tagged EGFRvIII protein; not shown: human IgG Fc fragment (hFc) of the pCpC vector
Method: The purified humanized anti-EGFRvIII antibody obtained in example 12 is reacted with a human EGFRvIII-hFc protein.
The purified immunogen A (EGFRvIII-hFc) obtained in example 1 (for the preparation method, see step (I) in example 1) is diluted with PBS to a final concentration of 1.0 μg/mL, and then added to a 96-well ELISA plate at 100 μl/well. The plate is sealed with a plastic film and incubated at 4° C. overnight. The next day, the plate is washed twice with a plate washing solution [PBS+0.01% (v/v) Tween20], and added with a blocking solution [PBS+0.01% (v/v) Tween20+1% (w/w) BSA] for blocking 2 hours at room temperature. […] The plate is incubated for 2 hours at 37° C., and then washed 3 times with the plate washing solution [PBS+0.01% (v/v) Tween20]. The plate is added with an HRP (horseradish peroxidase) labeled secondary antibody (purchased from Sigma), incubated at 37° C. for 2 hours, and then washed 3 times with the plate washing solution [PBS+0.01% (v/v) Tween20]. The plate is added with 100 μl of TMB substrate/well, incubated for 30 minutes at room temperature, and then added with 100 μl of stopping solution (1.0N HCl)/well. A450 nm value is read using an ELISA plate reader (SpectraMax 384plus, purchased from Molecular Device).

| EC50 | Maximum OD450 value | Binder |
| --- | --- | --- |
| 0.01 nM | 3.71 OD450 | B6 |
| 0.15 nM | 3.57 OD450 | B7 |
| 0.16 nM | 3.65 OD450 | B8 |
| 0.28 nM | 3.6 OD450 | B9 |
| 0.01 nM | 3.71 OD450 | B10 |
| 0.22 nM | 3.7 OD450 | B11 |
| 0.18 nM | 3.55 OD450 | B12 |
| 0.17 nM | 3.61 OD450 | B13 |
| 0.24 nM | 3.6 OD450 | B14 |
| 0.33 nM | 3.47 OD450 | B15 |
| 0.17 nM | 3.6 OD450 | B16 |
| 0.17 nM | 3.63 OD450 | B17 |
| 0.15 nM | 3.67 OD450 | B18 |
| 0.66 nM | 2.98 OD450 | B19 |
| 0.57 nM | 2.73 OD450 | B20 |
| 0.67 nM | 2.96 OD450 | B21 |

Each binder was assayed against T2, human EGFRvIII protein on the cell surface (human, UniProt P00533 25-1210) (assay: FACS on U87MG-EGFRvIII cells).
T2 construct: whole, on cells; the cell line is named under assay; also called hEGFRvIII; U87MG-hEGFRvIII
Method: The preparation of U87MG-EGFRvIII required for FACS detection is as described in the preparation of the immunogen B in example 1. Normal human primary hepatocytes are purchased from BioreclamationIVT, and A431 tumor cells are purchased from ATCC. The recovered hepatocytes are directly used for FACS detection, and the recovered U87MG-EGFRvIII and A431 cells are subjected to an expanded culture to 90% confluence in a T-75 cell culture flask; the medium is sucked out, and the cells are washed twice with a HBSS buffer (Hanks Balanced Salt Solution) (purchased from Invitrogen), and then treated with an enzyme-free cell dissociation solution (Versene solution: purchased from Life Technology) and collected. The cells are washed twice with the HBSS buffer and are counted, and then the cells are diluted with the HBSS buffer to 2×10⁶ cells/ml, added with 1% goat serum blocking solution, with the percentage being the mass percentage, and incubated on ice for 30 minutes, and then centrifugally washed twice with the HBSS buffer. The collected cells are resuspended to 2×10⁶ cells/mL with an FACS buffer (HBSS+2% FBS, with the percentage being the volume percentage), added to a 96-well FACS reaction plate at 100 μL/well, then added with 100 μL/well of the purified EGFRvIII antibody (samples to be tested) obtained in example 12, and incubated on ice for 2 hours. The plate is centrifugally washed twice with the FACS buffer, added with 100 μL/well of a 1:1000 diluted fluorescence (Alexa 488) labeled secondary antibody (purchased from Invitrogen), and incubated on ice for 1 hour. The plate is centrifugally washed 3 times with the FACS buffer, added with 100 μL/well of a fixing solution [4% (v/v) paraformaldehyde] to resuspend the cells, and centrifugally washed twice with the FACS buffer after 10 minutes. The cells are resuspended in 100 μL of the FACS buffer, and the results are detected and analyzed by FACS (FACS Calibur, purchased from BD). Data analysis is performed by using the software (CellQuest) to obtain the mean fluorescence intensity (MFI) of the cells. Data is further analyzed by using the software (GraphPad Prism5) to perform data fitting and calculate EC50.

| EC50 | Maximum mean fluorescence intensity | Binder |
| --- | --- | --- |
| 1.58 nM | 23500 MFI | B7 |
| 1.79 nM | 23700 MFI | B8 |
| 5.35 nM | 10200 MFI | B9 |
| 3.03 nM | 10700 MFI | B11 |
| 1.56 nM | 22600 MFI | B12 |
| 1.32 nM | 24700 MFI | B13 |
| 4.1 nM | 10700 MFI | B14 |
| 4.62 nM | 20200 MFI | B15 |
| 2.34 nM | 23500 MFI | B16 |
| 3.27 nM | 21100 MFI | B17 |
| 1.83 nM | 24200 MFI | B18 |
| 5.32 nM | 18000 MFI | B19 |
| 5.2 nM | 17800 MFI | B20 |
| 5.11 nM | 17600 MFI | B21 |
